According to patent publication US20190241648A1 (STATEN BIOTECHNOLOGY B V, published 2019):
Ends that are not written are not given here.

Assays:
Assay in all cases: cyclic peptide substitution array
[1] = biological target: T1, ApoC3 peptide E63D (human, not fully specified; cyclic (thioether))
T1 peptide: DKFSDFWDLDPEV
Procedure, shortened: (§1)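 Peptide microarrays incubated with antibody samples, then stained with goat anti-human IgG (Fc) DyLight680 and anti-HA DyLight800 control antibodies, scanned at intensity 7/7 (red/green). Secondary-only pre-stain checked background binding; framing HA peptides served as quality control; substitution effects read as changes in spot intensity.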

[2] = biological target: T2, ApoC3 peptide D59E (human, thioether (positions not given here); not fully specified (C-terminus, bridges))
T2 peptide: EKFSEFWDLDPEV
Procedure, shortened: as §1

[3] = biological target: T3, ApoC3 peptide K60G (human, cyclic (thioether))
T3 peptide: DGFSEFWDLDPEV
Procedure, shortened: as §1

[4] = biological target: T4, ApoC3 peptide V71G (human, thioether (positions not given here); also: cyclic (thioether), ring places not given here)
T4 peptide: DKFSEFWDLDPEG
Procedure, shortened: as §1

[5] = biological target: T5, ApoC3 peptide S62I (human, thioether (positions not given here); also: cyclic (thioether), ring places not given here)
T5 peptide: DKFIEFWDLDPEV
Procedure, shortened: as §1

[6] = biological target: T6, ApoC3 peptide W65I (human, cyclic (thioether))
T6 peptide: DKFSEFIDLDPEV
Procedure, shortened: as §1

[7] = biological target: T7, ApoC3 peptide E70I (human, cyclic (thioether))
T7 peptide: DKFSEFWDLDPIV
Procedure, shortened: as §1

[8] = biological target: T8, ApoC3 peptide W65K (human, cyclic (thioether))
T8 peptide: DKFSEFKDLDPEV
Procedure, shortened: as §1

[9] = biological target: T9, ApoC3 peptide P69K (human, not fully specified; cyclic (thioether))
T9 peptide: DKFSEFWDLDKEV
Procedure, shortened: as §1

[10] = biological target: T10, ApoC3 peptide F64L (human, thioether (positions not given here); not fully specified (bridges); also: cyclic (thioether), positions not given here)
T10 peptide: DKFSELWDLDPEV
Procedure, shortened: as §1

[11] = biological target: T11, ApoC3 peptide L67M (human, thioether (positions not given here); not fully specified (bridges); also: thioether between a C-terminal Cys side chain and a modified N-terminus, the Cys is not in the chain)
T11 peptide: DKFSEFWDMDPEV
Procedure, shortened: as §1

[12] = biological target: T12, ApoC3 peptide D68M (human, cyclic (thioether))
T12 peptide: DKFSEFWDLMPEV
Procedure, shortened: as §1

[13] = biological target: T13, ApoC3 peptide S62P (human, thioether (positions not given here); also: cyclic (thioether), ring places not given here)
T13 peptide: DKFPEFWDLDPEV
Procedure, shortened: as §1

[14] = biological target: T14, ApoC3 peptide F64P (human, thioether (positions not given here); not fully specified (bridges); also: cyclic (thioether), positions not given here)
T14 peptide: DKFSEPWDLDPEV
Procedure, shortened: as §1

[15] = biological target: T15, ApoC3 peptide D68Q (human, cyclic (thioether))
T15 peptide: DKFSEFWDLQPEV
Procedure, shortened: as §1

[16] = biological target: T16, ApoC3 peptide E70Q (human, cyclic (thioether))
T16 peptide: DKFSEFWDLDPQV
Procedure, shortened: as §1

[17] = biological target: T17, ApoC3 peptide D59R (human, thioether (positions not given here); not fully specified (C-terminus, bridges); also: cyclised via thioether between a C-terminal Cys and a modified N-terminus, the Cys and the N-terminal …)
T17 peptide: RKFSEFWDLDPEV
Procedure, shortened: as §1

[18] = biological target: T18, ApoC3 peptide D66R (human, not fully specified; cyclic (thioether))
T18 peptide: DKFSEFWRLDPEV
Procedure, shortened: as §1

[19] = biological target: T19, ApoC3 peptide L67R (human, thioether (positions not given here); not fully specified (bridges); also: thioether between a C-terminal Cys side chain and a modified N-terminus, the Cys is not in the chain)
T19 peptide: DKFSEFWDRDPEV
Procedure, shortened: as §1

[20] = biological target: T20, ApoC3 peptide P69R (human, not fully specified; cyclic (thioether))
T20 peptide: DKFSEFWDLDREV
Procedure, shortened: as §1

[21] = biological target: T21, ApoC3 peptide E70R (human, cyclic (thioether))
T21 peptide: DKFSEFWDLDPRV
Procedure, shortened: as §1

[22] = biological target: T22, ApoC3 peptide K60S (human, cyclic (thioether))
T22 peptide: DSFSEFWDLDPEV
Procedure, shortened: as §1

[23] = biological target: T23, ApoC3 peptide D66S (human, not fully specified; cyclic (thioether))
T23 peptide: DKFSEFWSLDPEV
Procedure, shortened: as §1

[24] = biological target: T24, ApoC3 peptide W65T (human, cyclic (thioether))
T24 peptide: DKFSEFTDLDPEV
Procedure, shortened: as §1

[25] = biological target: T25, ApoC3 peptide D59W (human, thioether (positions not given here); not fully specified (C-terminus, bridges); also: cyclised via thioether between a C-terminal Cys and a modified N-terminus, the Cys and the N-terminal …)
T25 peptide: WKFSEFWDLDPEV
Procedure, shortened: as §1

[26] = biological target: T26, ApoC3 peptide F64W (human, thioether (positions not given here); not fully specified (bridges); also: cyclic (thioether), positions not given here)
T26 peptide: DKFSEWWDLDPEV
Procedure, shortened: as §1

[27] = biological target: T27, ApoC3 peptide S62Y (human, thioether (positions not given here); also: cyclic (thioether), ring places not given here)
T27 peptide: DKFYEFWDLDPEV
Procedure, shortened: as §1

[28] = biological target: T28, wild-type ApoC3 peptide DKFSEFWDLDPEV (human, cyclic (thioether))
T28 construct: 13 aa cyclic constrained peptide
T28 peptide: DKFSEFWDLDPEV
Procedure, shortened: as §1

[29] = biological target: T29, ApoC3 peptide D59C (human, thioether (positions not given here); not fully specified (C-terminus, bridges))
T29 peptide: CKFSEFWDLDPEV
Procedure, shortened: as §1

B1: Llama antibody 5E5 (antibody, V domains shown)
VH: QLQLVESGGGLVQPGGSLRLSCAASGFTFGTYSMRWVRQVPRKALEWVSSISTDGGGTAYRDSVKGRFTISRDNAKNTLYLQMNNLKPEDTAIYYCVIAGYSDWGQGTQVTVSS
VL: ATMLTQSPGSLSVVPGESASISCKTSQGLVHSDGKTYFYWFLQKPGQSPQQLIYQVSNRASGVPDRFTGSGSGTDFTLKISGVKAEDAGVYYCAQGTYYPHTFGSGTRLEIK
notes: detected with goat anti-human IgG (Fc); also called mAb 5E5
In the case of B1, the “% of binding to wild-type peptide” value [1] is reported as 29.9%, the “% of binding to wild-type peptide” value [2] is reported as 128% and the “% of binding to wild-type peptide” value [3] is reported as 143%. The “% of binding to wild-type peptide” value [4] was 91.9%, the “% of binding to wild-type peptide” value [5] was 0.64% and the “% of binding to wild-type peptide” value [6] was 0%. For the same binder, the “% of binding to wild-type peptide” value [7] was 65.6%, the “% of binding to wild-type peptide” value [8] was 0% and the “% of binding to wild-type peptide” value [9] was 20.7%. The “% of binding to wild-type peptide” value [10] was 118%, the “% of binding to wild-type peptide” value [11] was 12.5% and the “% of binding to wild-type peptide” value [12] was 2.82%. The “% of binding to wild-type peptide” value [13] was 0%, the “% of binding to wild-type peptide” value [14] was 528% and the “% of binding to wild-type peptide” value [15] was 0.96%. The “% of binding to wild-type peptide” value [16] was 68%, the “% of binding to wild-type peptide” value [17] was 43.3% and the “% of binding to wild-type peptide” value [18] was 0.17%. For the same binder, the “% of binding to wild-type peptide” value [19] was 15.4%, the “% of binding to wild-type peptide” value [20] was 20.1% and the “% of binding to wild-type peptide” value [21] was 35.8%. For the same binder, the “% of binding to wild-type peptide” value [22] was 174%, the “% of binding to wild-type peptide” value [23] was 0% and the “% of binding to wild-type peptide” value [24] was 0%. For the same binder, the “% of binding to wild-type peptide” value [25] was 56.8%, the “% of binding to wild-type peptide” value [26] was 88.5% and the “% of binding to wild-type peptide” value [27] was 0%. The “% of binding to wild-type peptide” value [28] was 100% and the “% of binding to wild-type peptide” value [29] was 66.2%.
